Patent US20200055952A1 (B CELL DESIGN, published 2020)
Values belong to the molecule of their own block, whether it stands above or below them.

Legend:
[1] = target: carcinoembryonic antigen (CEA) on WiDr human colorectal cancer cells (human) (UniProt P06731); assay: cell-based or functional assay
[2] = target: T1, CEACAM-6 (NCA or CD66c) (UniProt P40199 35-320, limits assumed); assay: immunofluorescence on tissues (liver and stomach) and flow cytometry on leukocytes, data not shown
T1 construct: whole, on cells
T1 sequence (looked up): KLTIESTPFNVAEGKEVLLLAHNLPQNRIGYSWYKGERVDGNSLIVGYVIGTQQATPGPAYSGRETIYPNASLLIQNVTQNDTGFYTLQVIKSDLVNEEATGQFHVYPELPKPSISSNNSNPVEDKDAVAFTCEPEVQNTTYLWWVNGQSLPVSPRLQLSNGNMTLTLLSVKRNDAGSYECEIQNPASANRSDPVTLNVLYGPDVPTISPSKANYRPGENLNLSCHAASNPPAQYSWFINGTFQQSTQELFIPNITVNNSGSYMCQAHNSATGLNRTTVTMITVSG

doubly selected cells (Effector Cell (CD89+): WiDr target cells (CEA+)) by flow cytometry, in vivo in SCID-CD89 mice [1]: 10.2%
Molecule: irrelevant polymeric IgA anti-peanut (antibody)

binding result [2]: no binding
B1: anti-CEA IgA monoclonal antibody clone 15B3 (human/mouse chimeric IgA1, hybridoma culture supernatant) (antibody, V domains shown)
VH: QIQLVQSGPELKKPGETVKISCKASGYTFTNYGMNWVNQAPGKGLKWMGWINTNTGEPTYAEEFKGRFAFSLETSASTAYLQINNLKNEDTATYFCARLWYLYFDVWGAGTTVTVSS
VL: DIQMTQSPASQSASLGESVTITCLASQTIGTRLAWYQQKPGKSPQLLIYAATRLADGVPSRFSGSGSGTKFSFKISSLQAEDFVSYYCQQLYSTPYTFGGGTKLEIK
notes: From HAMIGA mice: human IgA1 heavy chain constant regions, mouse light chain constant regions, mouse variable regions; The hybridoma supernatant holds monomeric (no J chain) and polymeric (murine J chain) forms; also called mAb 15B3; IgA anti-CEA clone #15B3
